Test results taken from paper PMC8884700, “Selection and Modelling of a New Single-Domain Intrabody Against TDP-43” (Frontiers in Molecular Biosciences, 2021).
Residue numbers refer to the chain shown, from its start.

Experiments:
[1] = target: T1, LexA fragment of RRMs (160-208) (Homo sapiens (species of cDNA not …, UniProt Q13148)); test: two-hybrid; IACT / in vivo epitope mapping in L40 yeast; LexA-fused bait, VP16-fused VHH prey; growth on SD-WHL (HIS3); liquid beta-gal (LacZ) for the full-length bait; conditions: partners not purified
T1 construct: TDP-43, residues 160-208, containing the linker between RRM1 and RRM2; also called RRMs bait; source: yeast two-hybrid fusion (L40 yeast)
T1 chain: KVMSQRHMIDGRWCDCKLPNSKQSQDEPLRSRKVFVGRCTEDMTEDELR

LexA-RRM2 (192-258) = target: T2, LexA-RRM2 (192-258) (Homo sapiens (species of cDNA not …, UniProt Q13148)); test: as above; conditions: partners not purified
T2 construct: TDP-43, RRM2, residues 192-258; also called RRM2 bait; source: yeast two-hybrid fusion (L40 yeast)
T2 sequence (Q13148 192-258): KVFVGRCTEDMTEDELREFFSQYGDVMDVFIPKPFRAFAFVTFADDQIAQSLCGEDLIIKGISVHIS

[2] = target: T3, LexA-N-term + RRM1-2 (residues 1-258) (Homo sapiens (species of cDNA not …, UniProt Q13148)); test: as above; conditions: partners not purified
T3 construct: TDP-43, residues 1-258 (N-terminus plus RRM1 and RRM2); also called LexA- N-Term + RRM1-2 (1-258); N-terminal half of TDP-43; source: yeast two-hybrid fusion (L40 yeast)
T3 sequence (Q13148 1-258): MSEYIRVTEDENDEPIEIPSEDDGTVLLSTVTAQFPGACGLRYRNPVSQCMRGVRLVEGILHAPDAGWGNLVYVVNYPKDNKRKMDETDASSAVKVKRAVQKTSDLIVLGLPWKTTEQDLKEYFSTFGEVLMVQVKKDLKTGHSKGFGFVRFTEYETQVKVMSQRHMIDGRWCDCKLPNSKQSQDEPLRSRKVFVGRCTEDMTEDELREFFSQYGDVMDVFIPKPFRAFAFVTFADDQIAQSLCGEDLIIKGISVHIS

[3] = target: T4, LexA-TDP-43 full length (residues 1-414) (Homo sapiens (species of cDNA not …, UniProt Q13148)); test: as above; conditions: partners not purified
T4 construct: also called TDP-43 bait; source: yeast two-hybrid fusion (L40 yeast, pMicBD1 bait plasmid)
T4 sequence (Q13148 whole entry, the tested form may be a part): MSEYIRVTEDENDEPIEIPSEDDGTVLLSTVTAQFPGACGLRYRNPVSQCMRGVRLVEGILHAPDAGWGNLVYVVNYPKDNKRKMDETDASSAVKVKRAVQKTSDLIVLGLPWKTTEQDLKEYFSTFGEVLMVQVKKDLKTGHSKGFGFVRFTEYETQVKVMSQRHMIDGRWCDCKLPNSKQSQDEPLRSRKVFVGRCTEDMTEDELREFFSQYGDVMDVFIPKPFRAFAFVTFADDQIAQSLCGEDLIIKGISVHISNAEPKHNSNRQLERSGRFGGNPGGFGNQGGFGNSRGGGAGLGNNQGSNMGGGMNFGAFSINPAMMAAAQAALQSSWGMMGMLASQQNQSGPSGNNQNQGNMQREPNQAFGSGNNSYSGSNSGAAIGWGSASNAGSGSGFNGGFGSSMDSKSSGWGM

purified RRM2 of TDP-43 = target: T5, purified RRM2 of TDP-43 (Homo sapiens, UniProt Q13148); test: ELISA; indirect ELISA; TDP-43 fragments coated at 1 uM in carbonate buffer pH 9.6; VHH5 added at 1, 3, 5 and 10 uM, 2 h, room temperature; detected with anti-camelid VHH [HRP]; conditions: both partners purified
T5 construct: TDP-43, RRM2 domain; source: purified
T5 sequence (Q13148 whole entry, looked up, the tested form may be a part): as the sequence (Q13148 whole entry, the tested form may be a part) above

purified RRM1 of TDP-43 = target: T6, purified RRM1 of TDP-43 (Homo sapiens, UniProt Q13148); test: ELISA; sandwich ELISA; VHH5 coated at 1, 3, 5 and 10 uM in carbonate buffer pH 9.6; TDP-43 fragments (10 ug/ml) added in PBS/BSA 1% pH 7.4, 2 h, room temperature; detected with rabbit anti-TDP-43 polyclonal and HRP secondary antibody; conditions: both partners purified
T6 construct: TDP-43, RRM1 domain; source: purified

[4] = target: T7, purified RRM1-2 of TDP-43 (tandem RRM domains) (Homo sapiens, UniProt Q13148); test: as above; conditions: both partners purified
T7 construct: TDP-43, tandem RRM1 and RRM2 domains; Production and limits of the purified construct are not described; The docking used PDB 4bs2 (human TDP-43 tandem RRM1-2) as the putative antigen; source: purified

Measured: binding result

B1: anti-TDP-43 VHH5 intrabody (VP16 activation domain fusion, prey in pLinker220) (VHH)
VHH: KVQLVESGGGSVQIGGSLRLSCRISEGSGNKYVMAWFRQAPGQEREFVGVISWSGTRTHYADSVRGRFTISRMDNTAYLQMDSLTPDDSGVYYCAASVSVPPFLELTAAHFGSWGQGTQVRVGS
notes: selected from a naive llama VHH SPLINT library; The modelling sections number residues 1-135, with H3 at 94-114; source: yeast two-hybrid fusion (L40 yeast, pLinker220 prey plasmid)
binds: [1] | LexA-RRM2 (192-258) | [2] | [3]

B2: VHH5-I15A_M75K (VHH)
VHH: B1 VHH with I14A, M73K
notes: also called purified VHH5; double mutant; not shown: SUMO, N-terminal, cleaved
binds: purified RRM2 of TDP-43 | purified RRM1 of TDP-43 | [4]
